Measured values from patent US11795460B2, “Compositions and methods for TTR gene editing and treating ATTR amyloidosis” (Intellia Therapeutics, Inc., priority 2017, dated 2023).
Strand notation (5' to 3'): a small letter for the sugar, then the base; units joined by * are phosphorothioate-linked, units joined directly phosphodiester-linked; [ ] holds rarer units or linkages, { } end groups; capitals alone tell only the bases. m = 2'-O-methyl; r = 2'-OH (RNA)

B1: G000481: TTR sgRNA modified sequence, Human, SEQ ID No. 88; guide sequence of CR003345 (nucleic acid)
guide: mU*mC*mU*rArGrArArCrUrUrUrGrArCrCrArUrCrArGrGrUrUrUrUrArGrAmGmCmUmAmGmAmAmAmUmAmGmCrArArGrUrUrArArArArUrArArGrGrCrUrArGrUrCrCrGrUrUrArUrCrAmAmCmUmUmGmAmAmAmAmAmGmUmGmGmCmAmCmCmGmAmGmUmCmGmGmUmGmCmU*mU*mU*mU
B2: G000488: TTR sgRNA modified sequence, Human, SEQ ID No. 95; guide sequence of CR003346 (nucleic acid)
guide: mA*mA*mA*rGrUrUrCrUrArGrArUrGrCrUrGrUrCrCrGrGrUrUrUrUrArGrAmGmCmUmAmGmAmAmAmUmAmGmCrArArGrUrUrArArArArUrArArGrGrCrUrArGrUrCrCrGrUrUrArUrCrAmAmCmUmUmGmAmAmAmAmAmGmUmGmGmCmAmCmCmGmAmGmUmCmGmGmUmGmCmU*mU*mU*mU
B3: G000482: TTR sgRNA modified sequence, Human, SEQ ID No. 89; guide sequence of CR003365 (nucleic acid)
guide: mU*mG*mU*rArGrArArGrGrGrArUrArUrArCrArArArGrGrUrUrUrUrArGrAmGmCmUmAmGmAmAmAmUmAmGmCrArArGrUrUrArArArArUrArArGrGrCrUrArGrUrCrCrGrUrUrArUrCrAmAmCmUmUmGmAmAmAmAmAmGmUmGmGmCmAmCmCmGmAmGmUmCmGmGmUmGmCmU*mU*mU*mU
B4: G000490: TTR sgRNA modified sequence, Human, SEQ ID No. 97; guide sequence of CR003366 (nucleic acid)
guide: mA*mA*mA*rUrArGrArCrArCrCrArArArUrCrUrUrArCrGrUrUrUrUrArGrAmGmCmUmAmGmAmAmAmUmAmGmCrArArGrUrUrArArArArUrArArGrGrCrUrArGrUrCrCrGrUrUrArUrCrAmAmCmUmUmGmAmAmAmAmAmGmUmGmGmCmAmCmCmGmAmGmUmCmGmGmUmGmCmU*mU*mU*mU
B5: G000500: TTR sgRNA modified sequence, Human, SEQ ID No. 107; guide sequence of CR003337 (nucleic acid)
guide: mC*mC*mA*rGrUrCrCrArGrCrArArGrGrCrArGrArGrGrGrUrUrUrUrArGrAmGmCmUmAmGmAmAmAmUmAmGmCrArArGrUrUrArArArArUrArArGrGrCrUrArGrUrCrCrGrUrUrArUrCrAmAmCmUmUmGmAmAmAmAmAmGmUmGmGmCmAmCmCmGmAmGmUmCmGmGmUmGmCmU*mU*mU*mU
B6: G000489: TTR sgRNA modified sequence, Human, SEQ ID No. 96; guide sequence of CR003344 (nucleic acid)
guide: mU*mU*mU*rGrArCrCrArUrCrArGrArGrGrArCrArCrUrGrUrUrUrUrArGrAmGmCmUmAmGmAmAmAmUmAmGmCrArArGrUrUrArArArArUrArArGrGrCrUrArGrUrCrCrGrUrUrArUrCrAmAmCmUmUmGmAmAmAmAmAmGmUmGmGmCmAmCmCmGmAmGmUmCmGmGmUmGmCmU*mU*mU*mU
B7: G000480: TTR sgRNA modified sequence, Human, SEQ ID No. 87; guide sequence of CR003353 (nucleic acid)
guide: mA*mA*mA*rGrGrCrUrGrCrUrGrArUrGrArCrArCrCrUrGrUrUrUrUrArGrAmGmCmUmAmGmAmAmAmUmAmGmCrArArGrUrUrArArArArUrArArGrGrCrUrArGrUrCrCrGrUrUrArUrCrAmAmCmUmUmGmAmAmAmAmAmGmUmGmGmCmAmCmCmGmAmGmUmCmGmGmUmGmCmU*mU*mU*mU
B8: G000493: TTR sgRNA modified sequence, Human, SEQ ID No. 100; guide sequence of CR003368 (nucleic acid)
guide: mA*mA*mG*rUrGrCrCrUrUrCrCrArGrUrArArGrArUrUrGrUrUrUrUrArGrAmGmCmUmAmGmAmAmAmUmAmGmCrArArGrUrUrArArArArUrArArGrGrCrUrArGrUrCrCrGrUrUrArUrCrAmAmCmUmUmGmAmAmAmAmAmGmUmGmGmCmAmCmCmGmAmGmUmCmGmGmUmGmCmU*mU*mU*mU
B9: G000499: TTR sgRNA modified sequence, Human, SEQ ID No. 106; guide sequence of CR005303 (nucleic acid)
guide: mU*mG*mA*rArUrCrCrArArGrUrGrUrCrCrUrCrUrGrArGrUrUrUrUrArGrAmGmCmUmAmGmAmAmAmUmAmGmCrArArGrUrUrArArArArUrArArGrGrCrUrArGrUrCrCrGrUrUrArUrCrAmAmCmUmUmGmAmAmAmAmAmGmUmGmGmCmAmCmCmGmAmGmUmCmGmGmUmGmCmU*mU*mU*mU

Test system: TTR
Assay: TTR editing in primary human hepatocytes transfected with Spy Cas9 protein and sgRNAs (Table 12)
Type: cell-based
Conditions: primary human hepatocytes transfected with Spy Cas9 protein (RNP) and sgRNAs
Protocol: Primary liver hepatocytes. Primary human liver hepatocytes (PHH) and primary cynomolgus liver hepatocytes (PCH) (Gibco) were cultured per the manufacturer's protocol (Invitrogen, protocol 11.28.2012). In brief, the cells were thawed and resuspended in hepatocyte thawing medium with supplements (Gibco, Cat. CM7000) followed by centrifugation at 100 g for 10 minutes for human and 80 g for 4 minutes for cyno. The supernatant was discarded and the pelleted cells resuspended in hepatocyte plating medium plus supplement pack (Invitrogen, Cat. A1217601 and CM3000). Cells were counted and plated on Bio-coat collagen I coated 96-well plates (ThermoFisher, Cat. 877272) at a density of 33,000 cells/well for human or 60,000 cells/well for cyno (or 65,000 cells/well when assaying effects on TTR protein, described further below). Plated cells were allowed to settle and adhere for 6 or 24 hours in a tissue culture incubator at 37° C. and 5% CO2 atmosphere. After incubation cells were checked for monolayer formation and media was replaced with hepatocyte culture medium with serum-free supplement pack (Invitrogen, Cat. A1217601 and CM4000).
[…] formation was performed prior to electroporation or transfection of Spy Cas9 protein loaded with guide RNAs (RNPs) onto cells. For dual guide (dgRNAs), individual crRNA and trRNA was pre-annealed by mixing equivalent amounts of reagent and incubating at 95° C. for 2 min and cooling to room temperature. Single guide (sgRNAs) were boiled at 95° C. for 2 min and cooling to room temperature. The boiled dgRNA or sgRNA was incubated with Spy Cas9 protein in Optimem for 10 minutes at room temperature to form a ribonucleoprotein (RNP) complex.
For RNP lipoplex transfections, cells were transfected with Lipofectamine RNAiMAX (ThermoFisher, Cat. 13778150) per the manufacturer's protocol. Cells were transfected with an RNP containing Spy Cas9 (10 nM), individual guide (10 nM), tracer RNA (10 nM), Lipofectamine RNAiMAX (1.0 μL/well) and OptiMem. RNP formation was performed as described above.
Transfected cells were harvested post-transfection at 24, 48, or 72 hours. The genomic DNA was extracted from each well of a 96-well plate using 50 μL/well BuccalAmp DNA Extraction solution (Epicentre, Cat. QE09050) per manufacturer's protocol. All DNA samples were subjected to PCR and subsequent NGS analyses, as described herein.
To quantitatively determine the efficiency of editing at the target location in the genome, sequencing was utilized to identify the presence of insertions and deletions introduced by gene editing.
Primers were designed around the target site within the gene of interest (e.g. TTR), and the genomic area of interest was amplified.
Additional PCR was performed per the manufacturer's protocols (Illumina) to add chemistry for sequencing. The amplicons were sequenced on an Illumina MiSeq instrument. The reads were aligned to a reference genome (e.g., the human reference genome (hg38), the cynomologus reference genome (mf5), the rat reference genome (rn6), or the mouse reference genome (mm10)) after eliminating those having low quality scores. The resulting files containing the reads were mapped to the reference genome (BAM files), where reads that overlapped the target region of interest were selected and the number of wild type reads versus the number of reads which contain an insertion, substitution, or deletion was calculated.
The editing percentage (e.g., the “editing efficiency” or “percent editing” or “indel frequency”) is defined as the total number of sequence reads with insertions/deletions (“indels”) or substitutions over the total number of sequence reads, including wild type.
Guides in modified sgRNA format targeting human and/or cyno TTR were delivered to primary human hepatocytes and primary cyno hepatocytes as described in Example 1. […]

Molecule	Avg % Deletion	Avg % Edit	Avg % Insert
B1	19.43%	46.90%	27.77%
B2	35.00%	61.27%	26.30%
B3	10.10%	66.67%	56.57%
B4	9.80%	55.90%	46.13%
B5	3.83%	65.53%	62.00%
B6	9.43%	60.17%	51.07%
B7	4.70%	81.80%	77.15%
B8	2.67%	41.40%	38.90%
B9	1.17%	66.40%	65.23%

Test system: TTR
Assay: TTR editing in primary cyno hepatocytes electroporated with Spy Cas9 protein and sgRNAs (Tables 14, 15)
Type: cell-based, cynomolgus monkey
Conditions: Table 14; primary cyno hepatocytes electroporated with Spy Cas9 protein (RNP) and sgRNAs
Outline: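 Spy Cas9 RNPs with boiled sgRNAs electroporated (Lonza P3 buffer, program EX-147) into primary cynomolgus hepatocytes; harvest at 24, 48 or 72 h. TTR target site PCR-amplified and sequenced on Illumina MiSeq, reads aligned to mf5; percent editing is reads with indels or substitutions over total reads.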

Molecule	Avg % Deletion	Avg % Edit	Avg % Insert
B1	35.50%	69.13%	33.73%
B2	4.27%	9.63%	5.37%
B3	20.03%	75.17%	55.23%
B4	7.27%	61.67%	54.47%
B5	2.63%	45.20%	42.60%
B6	14.17%	67.53%	53.53%
B7	0.37%	10.20%	9.83%
B8	2.10%	50.13%	48.07%
B9	1.43%	83.40%	82.00%

Test system: TTR
Assay: EC50 and maximum editing in primary cyno hepatocytes treated with LNP formulated U-depleted Spy Cas9 mRNA and sgRNAs (Tables 20, 22)
Type: cell-based, cynomolgus monkey
Parameters: key: % of sequence reads with indels or substitutions over total reads
Conditions: Table 20, LNP with U-depleted Spy Cas9 mRNA and human specific sgRNAs, dose response
Outline: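 Primary cyno hepatocytes plated 24 h before treatment with cross-flow LNPs (PD-10 purified) carrying U-depleted Spy Cas9 mRNA and sgRNA, preincubated 5 min in maintenance medium with 6% cyno serum; 8-point 3-fold dose series from 300 ng mRNA. Cells lysed 72 h later; editing = indel/substitution reads over total reads by amplicon MiSeq sequencing.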

Molecule	Max Editing
B1	95.07
B2	21.63
B3	97.47
B4	90.76
B5	58.04
B6	89.21
B7	20.32
B8	61.15
B9	74.94
